The text below walks through data of publication PMC8437803, “Structural basis of RNA processing by human mitochondrial RNase P” (Nature Structural & Molecular Biology, 2021).

This experiment has as its target T1, Δ1–45 PRORP (human, UniProt O15091 46-583).
T1 construct: PRORP (MRPP3), human, without the predicted mitochondrial targeting signal (residues 1-45); also called MRPP3; Δ45-PRORP; source: E. coli BL21 (DE3) RIL, purified (HisTrap, TEV cleavage, heparin, Superdex 200); not shown: His6, N-terminal, cleaved
T1 sequence (looked up): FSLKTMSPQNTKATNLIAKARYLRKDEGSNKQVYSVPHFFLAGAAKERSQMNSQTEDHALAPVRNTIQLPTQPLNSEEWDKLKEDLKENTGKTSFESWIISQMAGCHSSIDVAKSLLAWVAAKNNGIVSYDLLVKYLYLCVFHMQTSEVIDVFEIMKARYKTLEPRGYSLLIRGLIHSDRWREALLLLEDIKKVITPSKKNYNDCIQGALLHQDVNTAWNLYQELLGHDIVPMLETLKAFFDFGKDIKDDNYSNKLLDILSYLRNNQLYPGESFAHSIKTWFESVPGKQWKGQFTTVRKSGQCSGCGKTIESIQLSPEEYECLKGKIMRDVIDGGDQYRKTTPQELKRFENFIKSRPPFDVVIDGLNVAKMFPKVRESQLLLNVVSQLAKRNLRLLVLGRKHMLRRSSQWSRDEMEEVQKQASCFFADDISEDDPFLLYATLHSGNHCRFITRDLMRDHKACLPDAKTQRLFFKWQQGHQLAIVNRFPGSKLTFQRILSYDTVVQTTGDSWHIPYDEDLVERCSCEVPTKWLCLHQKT
The experiment can be described thus: cryo-EM structure; Δ1–39 TRMT10C–SDR5C1 complex mixed with pre-tRNA^Tyr and NADH, then PRORP added, 30 °C, 100 mM Tris-HCl pH 8.0, 100 mM NaCl, 250 μM EDTA (Mg2+-depleted), 2 mM DTT; complex purified on Superdex 200 Increase 3.2/300; single-particle cryo-EM, 3.0 Å. To be noted: both partners purified.

B1: Δ1–39 TRMT10C (enzyme, human, UniProt Q7L0Y3 40-403, looked up)
chain: MSSKIPAVTYPKNESTPPSEELELDKWKTTMKSSVQEECVSTISSSKDEDPLAATREFIEMWRLLGREVPEHITEEELKTLMECVSNTAKKKYLKYLYTKEKVKKARQIKKEMKAAAREEAKNIKLLETTEEDKQKNFLFLRLWDRNMDIAMGWKGAQAMQFGQPLVFDMAYENYMKRKELQNTVSQLLESEGWNRRNVDPFHIYFCNLKIDGALHRELVKRYQEKWDKLLLTSTEKSHVDLFPKDSIIYLTADSPNVMTTFRHDKVYVIGSFVDKSMQPGTSLAKAKRLNLATECLPLDKYLQWEIGNKNLTLDQMIRILLCLKNNGNWQEALQFVPKRKHTGFLEISQHSQEFINRLKKAKT
notes: TRMT10C (MRPP1), human, without the predicted mitochondrial targeting signal (residues 1-39); 6x His tag and TEV site on TRMT10C only; tag cleaved by TEV protease during purification; also called MRPP1; Δ39 TRMT10C; source: E. coli BL21 (DE3) RIL, coexpressed with SDR5C1, copurified (HisTrap, TEV cleavage, heparin, Superdex 200); not shown: His6, N-terminal, cleaved
Consider B1, for which the binding result is reported as “binds”.
